From patent US20240115693A1 (CHILDREN S MEDICAL CENTER, published 2024)

Biological target: T1, recombinant human ACE2 (hACE2-Fc, InvivoGen) (human, UniProt Q9BYF1 18-740)
T1 construct: not shown: Fc part of a bought reagent
Test: ELISA, LuS-Tag coated, hACE2-Fc titrated

T1 sequence (Q9BYF1 18-740): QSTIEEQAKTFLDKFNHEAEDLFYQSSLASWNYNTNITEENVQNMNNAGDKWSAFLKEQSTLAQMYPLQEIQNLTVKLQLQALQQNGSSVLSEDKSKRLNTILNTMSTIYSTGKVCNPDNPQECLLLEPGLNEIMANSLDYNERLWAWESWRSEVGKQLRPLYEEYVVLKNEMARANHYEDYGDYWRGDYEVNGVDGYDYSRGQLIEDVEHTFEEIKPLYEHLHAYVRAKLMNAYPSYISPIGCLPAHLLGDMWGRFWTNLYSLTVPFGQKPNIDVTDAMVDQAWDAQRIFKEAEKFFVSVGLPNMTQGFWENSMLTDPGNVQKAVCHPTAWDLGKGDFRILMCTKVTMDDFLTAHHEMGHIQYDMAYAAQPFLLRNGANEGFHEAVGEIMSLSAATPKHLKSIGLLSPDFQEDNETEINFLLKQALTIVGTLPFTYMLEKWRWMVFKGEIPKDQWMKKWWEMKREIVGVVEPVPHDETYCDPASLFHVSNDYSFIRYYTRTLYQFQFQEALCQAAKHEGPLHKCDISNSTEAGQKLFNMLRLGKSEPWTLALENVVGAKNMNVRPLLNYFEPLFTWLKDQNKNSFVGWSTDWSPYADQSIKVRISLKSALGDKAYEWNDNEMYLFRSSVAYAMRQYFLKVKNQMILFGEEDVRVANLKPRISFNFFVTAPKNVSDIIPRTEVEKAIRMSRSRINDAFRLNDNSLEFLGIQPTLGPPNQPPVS

B1: Lumazine synthase expressing SpyTag (LuS-Tag) (other)
chain: AHIVMVDAYKPTKMQIYEGKLTAEGLRFGIVASRFNHALVDRLVEGAIDCIVRHGGREEDITLVRVPGSWEIPVAAGELARKENIDAVIAIGVLIRGATPHFDYIASEVSKGLANLSLELRKPITFGVITADTLEQAIERAGTKHGNKGWEAALSAIEMANLFKSLR
binding result: no binding (tested: starting at 10 µg/ml)
